Experimental data as given in paper PMC4134374.

What was measured:
[1] = molecular target: TMR-labelled 2RA H4-tail peptide; experiment: fluorescence polarisation
[2] = molecular target: TMR-labelled wt H4-tail peptide; experiment: fluorescence polarisation

Kd [1] | Kd [2] | Substance
41 nM | 3 nM | wt Acf1 (accessory subunit of human ACF), isolated (from UniProt Q9NRL2 1-1556) (natural protein)
 | 2 nM | ΔC-term Acf1 (residues 1423-1556 deleted) (from UniProt Q9NRL2 1-1422) (domain or fragment)
